Test system: MS2 coat protein
Experiment: apparent KD of MS2 coat protein; designed switch direction (-1 OFF switch, 1 ON switch): -1; higher = weaker reporter binding
How it was run: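 Apparent KD, taken as the median over clusters for each design, was obtained by curve-fitting normalised cluster fluorescence. Designed RNA switches had been transcribed on Illumina chips by stalled E. coli RNA polymerase and titrated with SNAP-549-labelled MS2 coat protein, doubling from 0.7 or 1.5 nM to 3 µM.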

[1] = input ligand: microRNA oligo, concentration not stated
[2] = Eterna round: R95, input ligand: microRNA oligo, concentration not stated
[3] = Eterna round: R95, input ligand: FMN 200 uM
[4] = Eterna round: R95, input ligand: none

Sequence: AUAAAACAUGAGGAUCACCCAUGUCAGGAUAUACGACUCCAACCUAACAGCUUGGACCGUAGAAGGGACAAGGG [Exclusion 1 (MOD2.2 Esqu)] (Eterna round: R97, puzzle: Exclusion 1)
- apparent KD of MS2 coat protein (input ligand: FMN 200 uM): 0.0916 µM
- apparent KD of MS2 coat protein (input ligand: none): 0.109 µM

Sequence: CAAAGAUAAGGAUAUUGAAGGUUCGACAUGAGGAUCACCCAUGUUAUGUUGGAAAAGGGACAAGAAGGUAUGAAAC [salish99_ex5_r4_211] (Eterna round: R97, puzzle: Exclusion 5)
- apparent KD of MS2 coat protein (input ligand: FMN 200 uM): 0.0282 µM
- apparent KD of MS2 coat protein (input ligand: none): 0.0358 µM

Sequence: UACAUGAGGAUCACCCAUGUUUUGUCGUGUAUGGUAUUUAUCUAGGAUAUCAUUGUAUUUAUUUAUGAGAAGGAGAAUAUUAAU [JMF's solution 96] (Eterna round: R96, puzzle: Exclusion NG 3)
- apparent KD of MS2 coat protein (input ligand: FMN 200 uM): 0.0344 µM
- apparent KD of MS2 coat protein [1]: 0.024 µM
- apparent KD of MS2 coat protein (input ligand: none): 0.0326 µM

Sequence: CUUUUGUGAGGAUAUCAGUAGUAAUAUAAUAGUAUUACUACUGAGAAGGCACAUGAGGAUCACCCAUGUUCCUC [Ex4 344 Omei mod 8] (puzzle: Exclusion 4)
- apparent KD of MS2 coat protein [2]: 0.0279 µM

Sequence: GAAUAACAUGAGGAUCACCCAUGUUAGGAUAUGACGUCGUUUAGUCUUUAAACGAGCGUUAGAAGGAACAGGUG [Eternabot (L1) Solution 11] (Eterna round: R97, puzzle: Exclusion 1)
- apparent KD of MS2 coat protein (input ligand: FMN 200 uM): 0.0708 µM
- apparent KD of MS2 coat protein (input ligand: none): 0.0568 µM

Sequence: AUCUGUGAGCGAGGAUAUCUGCUGUUGUCGGUCGGAGAAGGCGCGGACAGAACAUGAGGAUCACCCAUGUGUAUGGGCGGCCUC [Isvetima] (Eterna round: R96, puzzle: Exclusion NG 1)
- apparent KD of MS2 coat protein (input ligand: FMN 200 uM): 0.256 µM
- apparent KD of MS2 coat protein [1]: 0.0141 µM
- apparent KD of MS2 coat protein (input ligand: none): 0.0996 µM

Sequence: CUCAUGUGAGGAUAUGUGCUGAUCUGUACUGUGAUUAGAGAACAGAAGGUACAUGAGGAUCACCCAUGUACACG [Eternabot (L2) Solution 46] (Eterna round: R97, puzzle: Exclusion 4)
- apparent KD of MS2 coat protein (input ligand: FMN 200 uM): 0.354 µM
- apparent KD of MS2 coat protein (input ligand: none): 0.0147 µM

Sequence: CUAGAUCUUCGGAUCUAGUACAUGAGGAUCACCCAUGUUACGAGCAGAUCUUCAUACAAGCUUUUUGCUCGUCUUAU [Sensor v3 - Turn-off variant 1 - 33] (puzzle: Sensor v3, turn-off variant 1)
- apparent KD of MS2 coat protein [3]: 0.0334 µM
- apparent KD of MS2 coat protein [2]: 0.0195 µM
- apparent KD of MS2 coat protein [4]: 0.0307 µM

Sequence: ACGAAGCUUUUUGCUCGUCACAUGAGGAUCACCCAUGUGGGCCCGGGCGCCCGGGCCGACAUCCCACUAGGACAUGU [#2] (Eterna round: R97, puzzle: Sensor, turn-off variant 1)
- apparent KD of MS2 coat protein (input ligand: FMN 200 uM): 0.104 µM
- apparent KD of MS2 coat protein (input ligand: none): 0.122 µM

Sequence: UUUUACGAAGGAUAUACAUUUUUUUUAUUAUUUUCAUUAUUACAUGAGGAUCACCCAUGUAGAAGGUCGAUUUU [My Design] (puzzle: Exclusion 2)
- apparent KD of MS2 coat protein [2]: 0.0277 µM

Sequence: GGAUAGUGAGGAUAUCGAUGUUAGGAGGAGGAGGUAGGAGGCGAGAAGGCACAUGAGGAUCACCCAUGUAUGGU [JR_Exclu4_Sub069] (puzzle: Exclusion 4)
- apparent KD of MS2 coat protein [2]: 0.0282 µM

Sequence: AGAUGCUCGAGUCGACAUGAGGAUCACCCAUGUACAGUUAAUGAGGAUAUCUGAGACAAAUAGUAGGAGAAGGCGUGAACAUGA [Ex NG3 #11] (Eterna round: R96, puzzle: Exclusion NG 3)
- apparent KD of MS2 coat protein (input ligand: FMN 200 uM): 0.191 µM
- apparent KD of MS2 coat protein [1]: 0.0686 µM
- apparent KD of MS2 coat protein (input ligand: none): 0.0909 µM

Sequence: CAUACUCAAGUCAGGAUAUAGAGUCGGAUACGGAUCUAGAAGGGACAUGAGGAUCACCCAUGUAGAGAGUAAAG [EX-4 Malc #25] (puzzle: Brourd's mod of Exclusion 4)
- apparent KD of MS2 coat protein [3]: 0.088 µM
- apparent KD of MS2 coat protein [2]: 0.038 µM
- apparent KD of MS2 coat protein [4]: 0.0211 µM

Sequence: AAGAAGCGAGGAUAUGCAAAAGAAAAGAAGAAGAAGAAAGAACAUGAGGAUCACCCAUGUAGAAGGCGCAAGAA [Mine, too!] (puzzle: Exclusion 2)
- apparent KD of MS2 coat protein [3]: 0.0198 µM
- apparent KD of MS2 coat protein [2]: 0.0208 µM
- apparent KD of MS2 coat protein [4]: 0.0222 µM

Sequence: AGUACUAUCACGAAAGUGAUAGUACAAUAAGCUUGUGGAACAUGAGGAUCACCCAUGUCCUCAUAAGCUCGUCUUAU [Mat - Sensor v3 - Turn-off var 2 - D27] (puzzle: Sensor v3, turn-off variant 2)
- apparent KD of MS2 coat protein [3]: 0.0157 µM
- apparent KD of MS2 coat protein [2]: 0.0687 µM
- apparent KD of MS2 coat protein [4]: 0.0147 µM

Sequence: AUGCGACAUGAGGAUCACCCAUGUGAGGAUAUGCGAAUGCAGACUUCGGUUUGAUAGAGCAGAAGGCGCAGGUA [EX1 #15] (Eterna round: R97, puzzle: Exclusion 1)
- apparent KD of MS2 coat protein (input ligand: FMN 200 uM): 0.0585 µM
- apparent KD of MS2 coat protein (input ligand: none): 0.0294 µM

Sequence: AAUAACAAGUUGAUCCUACACAUGAGGAUCACCCAUGUGCUCGUCUUGUAAAGUACUAUCACGAAAGUGAUAGUACA (Eterna round: R97, puzzle: Sensor, turn-off variant 1)
- apparent KD of MS2 coat protein (input ligand: FMN 200 uM): 0.0502 µM
- apparent KD of MS2 coat protein (input ligand: none): 0.066 µM

Sequence: CGUCCUGAUGACAACUUACAUGAGGAUCACCCAUGUGCCUCGCAGGAUAUCCCAGCACGUCGCAAGGAGAAGGGCGACGCGCCA [Ceeninge] (Eterna round: R96, puzzle: Exclusion NG 3)
- apparent KD of MS2 coat protein (input ligand: FMN 200 uM): 0.018 µM
- apparent KD of MS2 coat protein [1]: 0.0137 µM
- apparent KD of MS2 coat protein (input ligand: none): 0.019 µM

Sequence: CGAUGUUAUGUCAGGAUAUGCGUUGCGAAAGCAAUGUAGAAGGGACAUGAGGAUCACCCAUGUCCUAACCAUCG [Omei A 8] (puzzle: Brourd's mod of Exclusion 4)
- apparent KD of MS2 coat protein [3]: 0.0151 µM
- apparent KD of MS2 coat protein [2]: 0.013 µM
- apparent KD of MS2 coat protein [4]: 0.0135 µM

Sequence: AGUAACUAUCACGAAAGUGAUAGUUACACAAGCAGUGAAACAUGAGGAUCACCCAUGUCCUCAUUAGCUCGUCUUAU [Sensor 3 - 32] (puzzle: Sensor v3, turn-off variant 2)
- apparent KD of MS2 coat protein [3]: 0.117 µM
- apparent KD of MS2 coat protein [2]: 0.729 µM
- apparent KD of MS2 coat protein [4]: 0.164 µM

Sequence: AGUAACUCAAGAGGAUAUCACAUGAGGAUCACCCAUGUAUAGCGCGCUAUGCUAGUCCUCGUAUUUGAGAAGGUUUGAUAAAUG [JL ViennaUCT Quve mod 2] (Eterna round: R96, puzzle: Exclusion NG 2)
- apparent KD of MS2 coat protein (input ligand: FMN 200 uM): 0.0168 µM
- apparent KD of MS2 coat protein [1]: 0.0131 µM
- apparent KD of MS2 coat protein (input ligand: none): 0.0172 µM

Sequence: GAGUACAGAGGAUAUACAUGAGGAUCACCCAUGUGUUUCAGCUAGGAGACUAGCGAAAGUAGAAGGCUGUACUG [salish99_ex3_r4_006] (Eterna round: R97, puzzle: Exclusion 3)
- apparent KD of MS2 coat protein (input ligand: FMN 200 uM): 0.0234 µM
- apparent KD of MS2 coat protein (input ligand: none): 0.0103 µM

Sequence: UAAACAAGCUAAAGAUCCUACAUGAGGAUCACCCAUGUGCUCGUCUUAUAAGGUACUGUGACGAAAGUCACGGUACC [JL TOV1 3.00] (Eterna round: R97, puzzle: Sensor, turn-off variant 1)
- apparent KD of MS2 coat protein (input ligand: FMN 200 uM): 0.488 µM
- apparent KD of MS2 coat protein (input ligand: none): 0.663 µM

Sequence: GAAAAGAGAGGAUAUACAAGAAGAAAAGAAAAGAAAAGAAAACAUGAGGAUCACCCAUGUAGAAGGCUCAAAAG [Default title] (puzzle: Exclusion 2)
- apparent KD of MS2 coat protein [3]: 0.0182 µM
- apparent KD of MS2 coat protein [2]: 0.0127 µM
- apparent KD of MS2 coat protein [4]: 0.0203 µM

Sequence: GGUGGACAUGAGGAUCACCCAUGUGAGGAUAUCGGCUGGCUAGUGGCGGCUGGCUUCUCGAGAAGGCGCAUAGU [Exclusion 1 V79] (puzzle: Exclusion 1)
- apparent KD of MS2 coat protein [2]: 0.0422 µM

Sequence: UAUUAGCAAGCGAGAUCCCACAUGAGGAUCACCCAUGUGCUCGUCUUAUAAAAGACUGUGACGAAAGUCACGGUCAC [Mat - Sensor, turn-off var - Eli Mod - D21] (Eterna round: R97, puzzle: Sensor, turn-off variant 1)
- apparent KD of MS2 coat protein (input ligand: FMN 200 uM): 0.0146 µM
- apparent KD of MS2 coat protein (input ligand: none): 0.0157 µM

Sequence: CUGAUGUUAGGAUAUCAGGCGCCCGCCACUAGCAGGGCGCAUGAGAAGGGACAUGAGGAUCACCCAUGUAGUAA [Anbionxe] (puzzle: Exclusion 4)
- apparent KD of MS2 coat protein [2]: 0.0273 µM

Sequence: AGAUGCUCAAGUCGACAUGAGGAUCACCCAUGUACAAUUAACGAGGAUAUCCGAGAUAAAUAAUAGGAGAAGGCGUGAUCAUGA [Mat - Exclusion NG 3 - Mod of JL - D54] (Eterna round: R96, puzzle: Exclusion NG 3)
- apparent KD of MS2 coat protein (input ligand: FMN 200 uM): 0.0662 µM
- apparent KD of MS2 coat protein [1]: 0.11 µM
- apparent KD of MS2 coat protein (input ligand: none): 0.47 µM

Sequence: GGUUGGCGAGGAUAUACAUGAGGAUCACCCAUGUGAGAGAAACUAGUGAGGUCGAUUGGUAGAAGGCGCUGACG [Mat - Exclusion 3 - Mod of JL D81] (puzzle: Exclusion 3)
- apparent KD of MS2 coat protein [3]: 0.0253 µM
- apparent KD of MS2 coat protein [2]: 0.204 µM
- apparent KD of MS2 coat protein [4]: 0.129 µM

Sequence: ACAAGCUUUUUGCUCGUCUACAUGAGGAUCACCCAUGUAGUGUGUUAGUGGUGAAGAUAGAUUGAGCGUAGUAGGUA [JR_SV3TOV1_Sub072] (puzzle: Sensor v3, turn-off variant 1)
- apparent KD of MS2 coat protein [3]: 0.102 µM
- apparent KD of MS2 coat protein [2]: 0.0795 µM
- apparent KD of MS2 coat protein [4]: 0.109 µM

Sequence: UUUAGUUCAGGAUAUGUAGAUUUUAACAUGAGGAUCACCCAUGUAGAUCCUGAUCCUGCUACAGAAGGGAAAAUUU [Mat - Exclusion 5 - Eli Mod - D9] (Eterna round: R97, puzzle: Exclusion 5)
- apparent KD of MS2 coat protein (input ligand: FMN 200 uM): 0.0244 µM
- apparent KD of MS2 coat protein (input ligand: none): 0.0256 µM

Sequence: AUUUUAACAUAGGAUAUCGAAUUUAUCAUUUAACGAGAAGGAUGAACAUGAGGAUCACCCAUGUGGUAUCAUGG [JL-ex6-3.01] (puzzle: Exclusion 6)
- apparent KD of MS2 coat protein [3]: 0.16 µM
- apparent KD of MS2 coat protein [2]: 0.265 µM
- apparent KD of MS2 coat protein [4]: 0.105 µM

Sequence: AAAAAACAAGGAUAUACGGAUGAAGAGAGUCUUAAUUUUUGACAUGAGGAUCACCCAUGUAGAAGGUGUUAAAA [JR_Exclusion2_Sub017] (puzzle: Exclusion 2)
- apparent KD of MS2 coat protein [3]: 0.0589 µM
- apparent KD of MS2 coat protein [2]: 0.0444 µM
- apparent KD of MS2 coat protein [4]: 0.0505 µM

Sequence: ACAUGAGGAUCACCCAUGUGAAAAGAAUGGCUGACACAGAGAUAGGAUAUGUGUGCAUAUCUAACACAGAAGGGUCAUGACUGG [Deportation 80 - Jieux - Exclusion NG 3] (Eterna round: R96, puzzle: Exclusion NG 3)
- apparent KD of MS2 coat protein (input ligand: FMN 200 uM): 0.0416 µM
- apparent KD of MS2 coat protein [1]: 0.0342 µM
- apparent KD of MS2 coat protein (input ligand: none): 0.0401 µM

From the supplement of paper PMC9170038
